What was measured:
[1] = molecular target: T1, Biotinylated Human VEGF165 (ACROBiosystems, Cat. No. VE5-H82Q0) (human, UniProt P15692-4 27-191, biotinylated (site not stated)); test: flow cytometry, yeast-displayed clone, 1 nM Human VEGF165-Biotin; ratio of binding MFI and displaying MFI
T1 construct: Bought reagent; also called Human VEGF-Bio; human VEGF165-Bio

[2] = molecular target: T1, Biotinylated Human VEGF165 …; test: flow cytometry, yeast-displayed clone, 1 nM Human VEGF165-Biotin
[3] = molecular target: T1, Biotinylated Human VEGF165 …; test: BLI (Octet RED96e), method of Example 4, antibody on AHC sensor
Description: (§1) The antigen and antibody were both diluted with 1×PBST (1×PBS: Sango Biotech, B548117-0500; 0.02% Tween 20: sigma-alorich, P1379), the antigen was used at a concentration of 100 nM, and the antibody was used at a concentration of 50 nM.
(§2) (2) On-board detection of samples (Octet Data Acquisition 11.1.0.11): First, the samples were added to a 96-well plate (Greiner bio-one, 655209), and the system was 200 μL/well. Then the software parameters were set, the plate temperature was set to be 30° C., and the frequency of collecting the standard kinetic signal was 5.0 Hz. Next, the AHC sensor (Fortébio, Cat. No.: 18-0015) was pre-wetted with 1×PBST for 10 minutes, and then detected on the machine. Each cycle consists of the following steps: 1) immersion in the buffer for 60 seconds; 2) detection of whether there is a non-specific binding between antigen and sensor; 3) regeneration of 10 mM glycine solution with pH 1.7; 4) immersion in the buffer for 60 seconds; 5) immobilization of the antibody on the sensor for a time of 20 seconds; 6) immersion of the sensor in the buffer for 180 seconds; 7) binding of the antigen to the antibody for a time of 180 seconds; 8) dissociation of the antigen and the antibody for 10 minutes; 9) sensor regeneration.

[4] = molecular target: T1, Biotinylated Human VEGF165 …; test: competitive ELISA: antibody titrated with biotinylated human VEGF165 (formulated at 700 ng/ml) on coated human VEGFR2, SA-HRP, OD450; blocked interaction VEGF165-VEGFR2
Description: (§3) A competitive ELISA method was used to determine the activity of the single domain antibody in blocking the binding of VEGF165 to human VEGFR2. […] The next day, the plate was washed 3 times with washing solution PBST (0.05% TWEEN-20: sigma-alorich, P1379), and then the blocking solution PBST+2% BSA (BSA: VWR, 0332-1 KG) was prepared using the washing solution, with 300 μL of blocking solution added to each well, blocked at 37° C. for 1 hour. […] The plate was washed three times with the washing solution, the secondary antibody SA-HRP (sigma, S2438) was diluted 1:5000 with the blocking solution, added to the ELISA plate according to 100 μL/well, and incubated at 37° C. for 1 hour. The plate was washed 3 times with the washing solution, 100 μL of TMB chromogenic solution (Biopanda, Cat. No.: TMB-S-003) were added to each well, and developed color at room temperature in the dark, and then 50 μL of stop solution (Solarbio, Cat. No.: C1058) were added to each well to stop the reaction, and the absorbance was measured at a wavelength of 450 nm.

[5] = molecular target: T1, Biotinylated Human VEGF165 …; test: BLI (Octet RED96e), method of Example 4, antibody on AHC sensor, 1:1 fit
Description: as §1, §2

[6] = molecular target: T1, Biotinylated Human VEGF165 …; test: BLI (Octet RED96e), antibody captured on AHC sensor, 100 nM VEGF165, 1:1 fit
Description: as §1, §2
Fortebio's Data Analysis 11.0 software was used to measure the binding rate (Ka) and dissociation rate (Kd) of the antigen-antibody in a 1:1 binding mode, and then the equilibrium dissociation constant (KD) of the antibody was calculated.

[7] = molecular target: T1, Biotinylated Human VEGF165 …; test: competitive ELISA: antibody titrated with biotinylated human VEGF165 on coated human VEGFR2, SA-HRP, OD450; blocked interaction VEGF165-VEGFR2
Description: as §3

[8] = molecular target: irrelevant antigen; test: flow cytometry, yeast-displayed VHH, 10 nM irrelevant antigen, streptavidin-PE (Protocol 3, non-specific binding level)
[9] = molecular target: T1, Biotinylated Human VEGF165 …; test: BLI (Octet RED96e), antibody captured on AHC sensor, 100 nM VEGF165
Description: as §1, §2

T1 sequence (P15692 other isoform, or with tags, fused parts or gaps limits assumed): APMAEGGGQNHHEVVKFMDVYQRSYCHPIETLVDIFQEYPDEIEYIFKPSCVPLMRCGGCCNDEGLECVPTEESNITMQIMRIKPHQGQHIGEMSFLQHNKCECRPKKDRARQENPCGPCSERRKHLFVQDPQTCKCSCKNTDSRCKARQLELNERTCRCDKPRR

| Binder | Binding force [1] | Binding MFI [2] [MFI] | Response value [3] | IC50 [4] [µg/mL] | Kd [5] [nM] | koff [5] [s⁻¹] | kon [5] [M⁻¹ s⁻¹] | also measured |
| --- | --- | --- | --- | --- | --- | --- | --- | --- |
| Ab1910VE9 parental sequence displayed on the surface of yeast (VHH, also called clone number Ab1910VE9) VHH: EVQLVESGGGLVQPGGSLRLSCAASGSTSDIVSMAWYRQAPGKERELVSAVFAEDWRYVEDSVKGRFTISRDNSKNTVYLQMNSLRAEDTAVYYCNVRLRITDERRRERLDYWGQGTLVTVSS | 11.7 | 42.1 | – | – | – | – | – | – |
| Ab1910VE18 (expressed single domain antibody with the Ab1910VE9 parent sequence, molecule before affinity maturation) (VHH, Its theoretical pI (7.5) differs from that of Ab1910VE9 (7), so it is kept apart from Ab1910VE9) VHH: EVQLVESGGGLVQPGGSLRLSCAASGSTSDIVSMAWYRQAPGKERELVSAVFAEDWRYVEDSVKGRFTISRDNSKNTVYLQMNSLRAEDTAVYYCNVRLRITDERRRERLDYWGQGTLVTVSS | – | – | 0.142 | 0.88 | 2.23 | 0.00403 | 1.81e+06 | – |
| Ab1910VE9 (Hz20A6.3 humanized VHH fused with IgG1 Fc N297A) (Fc fusion, Expressed in ExpiCHO cells; not shown: IgG1 Fc N297A (purchased from Taizhou Biointron Inc.)) VHH: EVQLVESGGGLVQPGGSLRLSCAASGSTSDIVSMAWYRQAPGKERELVSAVFAEDWRYVEDSVKGRFTISRDNSKNTVYLQMNSLRAEDTAVYYCNVRLRITDERRRERLDYWGQGTLVTVSS | – | – | – | – | – | – | – | Kd [6]: 9.91 nM; koff [6]: 0.0181 s⁻¹; kon [6]: 1.82e+06 M⁻¹ s⁻¹; IC50 [7]: 4.67 µg/mL |
| Ab1910VE24 (expressed affinity-matured single domain antibody, clone YC43B1) (VHH) VHH: EVQLVESGGGLVQPGGSLRLSCAASGSTSDIVSMAWYRQAPGKERELVSAVFAEDWRYVEDSVKGRFTISRDNSKNTVYLQMNSLRAEDTAVYYCNVRLRITDWYSRERLDYWGQGTLVTVSS | – | – | 0.153 | 0.623 | 0.626 | 0.000857 | 1.37e+06 | – |
| Ab1910VE8 (Hz20A6.2 humanized VHH fused with IgG1 Fc N297A) (Fc fusion, Expressed in ExpiCHO cells; not shown: IgG1 Fc N297A (purchased from Taizhou Biointron Inc.)) VHH: EVQLVESGGGLVQPGGSLRLSCAASGSTSDIVSMAWYRQAPGKERELVSAVFAEDWRYVEDSVKGRFTISRDNSKNTVYLQMNSLRAEDTAVYYCNVRLRITDERRRERLDYWGKGTTVTVSS | – | – | – | – | – | – | – | Kd [6]: 10.5 nM; koff [6]: 0.0184 s⁻¹; kon [6]: 1.75e+06 M⁻¹ s⁻¹; IC50 [7]: 4.18 µg/mL |
| YC43B1, affinity-matured mutant clone of Ab1910VE9 displayed on yeast (VHH, also called antibody number Ab1910VE24) VHH: EVQLVESGGGLVQPGGSLRLSCAASGSTSDIVSMAWYRQAPGKERELVSAVFAEDWRYVEDSVKGRFTISRDNSKNTVYLQMNSLRAEDTAVYYCNVRLRITDWYSRERLDYWGQGTLVTVSS | 114 | 503 | – | – | – | – | – | – |
| YC41D1, affinity-matured mutant clone of Ab1910VE9 displayed on yeast (VHH, also called antibody number Ab1910VE21) VHH: EVQLVESGGGLVQPGGSLRLSCAASGSTSDIVSMAWYRQAPGKERELVSAVLAPGWSYVEDSVKGRFTISRDNSKNTVYLQMNSLRAEDTAVYYCNVRLRITDERRRERLDYWGQGTLVTVSS | 98.2 | 337 | – | – | – | – | – | – |
| YC43H2, affinity-matured mutant clone of Ab1910VE9 displayed on yeast (VHH, also called antibody number Ab1910VE23) VHH: EVQLVESGGGLVQPGGSLRLSCAASGSTSDIVSMAWYRQAPGKERELVSAVFAEDWRYVEDSVKGRFTISRDNSKNTVYLQMNSLRAEDTAVYYCNVRLRIPHQWRTERLDYWGQGTLVTVSS | 129 | 358 | – | – | – | – | – | – |
| Ab1910VE23 (expressed affinity-matured single domain antibody, clone YC43H2) (VHH) VHH: EVQLVESGGGLVQPGGSLRLSCAASGSTSDIVSMAWYRQAPGKERELVSAVFAEDWRYVEDSVKGRFTISRDNSKNTVYLQMNSLRAEDTAVYYCNVRLRIPHQWRTERLDYWGQGTLVTVSS | – | – | 0.116 | 1.24 | 0.728 | 0.00104 | 1.43e+06 | – |
| Ab1910VE21 (expressed affinity-matured single domain antibody, clone YC41D1) (VHH) VHH: EVQLVESGGGLVQPGGSLRLSCAASGSTSDIVSMAWYRQAPGKERELVSAVLAPGWSYVEDSVKGRFTISRDNSKNTVYLQMNSLRAEDTAVYYCNVRLRITDERRRERLDYWGQGTLVTVSS | – | – | 0.154 | 0.42 | 0.413 | 0.00051 | 1.24e+06 | – |
| Y20A6, anti-human VEGF165 single domain heavy chain antibody clone displayed on yeast (VHH, not shown: large carriers; small tags and cut ends) VHH: AVQLVESGGGLVQAGGSARLSCAASGSTSDIVSMAWYRQAPGKERDLVAAVFAEDWRYVEDSVRGRFTISRDNTKNTVDLQMNNLKPEDTAIYYCNVRLRITDERRRERLDYWGQGTQVTVSS | – | – | – | – | – | – | – | Irrelevant antigen binding signal (PE MFI) [8]: 21.8 MFI |
| Ab1910VE6 (Y20A6 VHH fused with IgG1 Fc N297A; original antibody before humanization) (Fc fusion, Expressed in ExpiCHO cells; not shown: IgG1 Fc N297A (purchased from Taizhou Biointron Inc.)) VHH: AVQLVESGGGLVQAGGSARLSCAASGSTSDIVSMAWYRQAPGKERDLVAAVFAEDWRYVEDSVRGRFTISRDNTKNTVDLQMNNLKPEDTAIYYCNVRLRITDERRRERLDYWGQGTQVTVSS | – | – | – | – | – | – | – | Kd [6]: 6.3 nM; koff [6]: 0.00888 s⁻¹; kon [6]: 1.41e+06 M⁻¹ s⁻¹; Response value [9]: 0.442; IC50 [7]: 0.516 µg/mL |

Reference: patent publication US20240287168A1 (SHANGHAI JEMINCARE PHARMACEUTICAL, published 2024)
